Experimental data published in patent US20220089743A1 (Chugai, published 2022).

Key:
[1] = biological target: HLA-DQ2.5 on IHW09023 cells loaded with 33 mer gliadin peptide (human; wheat); experiment: cell-based or functional assay
[2] = biological target: HLA-DQ2.5 on IHW09023 cells loaded with omega1/2 gliadin peptide (human; wheat); experiment: cell-based or functional assay
[3] = biological target: HLA-DQ2.5 on IHW09023 cells loaded with BC hordein peptide (human; barley); experiment: cell-based or functional assay
[4] = biological target: HLA-DQ2.5 on IHW09023 cells loaded with gamma 1 gliadin peptide (human; wheat); experiment: cell-based or functional assay
[5] = biological target: HLA-DQ2.5 on IHW09023 cells loaded with gamma 2 gliadin peptide (human; wheat); experiment: cell-based or functional assay
[6] = biological target: HLA-DQ2.5 on IHW09023 cells loaded with gamma 3 gliadin peptide (human; wheat); experiment: cell-based or functional assay
[7] = biological target: HLA-DQ2.5 on IHW09023 cells loaded with gamma 4a gliadin peptide (human; wheat); experiment: cell-based or functional assay
[8] = biological target: HLA-DQ2.5 on IHW09023 cells loaded with gamma 4d gliadin peptide (human; wheat); experiment: cell-based or functional assay
HLA-DQ5.1 on Ba/F3 cells = biological target: T1, HLA-DQ5.1 on Ba/F3 cells (human, limits assumed); experiment: FACS, Ba/F3 cells; raw MFI
T1 construct: whole, on cells; also called Ba/F3-HLA-DQ5.1
T1 MHC II alpha: not shown
T1 MHC II beta: not shown

HLA-DQ6.3 on Ba/F3 cells = biological target: T2, HLA-DQ6.3 on Ba/F3 cells (human, UniProt P01920 33-230, limits assumed); experiment: FACS, Ba/F3 cells; raw MFI
T2 construct: whole, on cells; also called Ba/F3-HLA-DQ6.3
T2 MHC II alpha: not shown
T2 MHC II beta: not shown

HLA-DR on Ba/F3 cells = biological target: T3, HLA-DR on Ba/F3 cells (human, UniProt P01903 26-216; P79483 30-227, limits assumed); experiment: FACS, Ba/F3 cells; raw MFI
T3 construct: whole, on cells; also called Ba/F3-HLA-DR
T3 MHC II alpha: not shown
T3 MHC II beta: not shown

HLA-DP on Ba/F3 cells = biological target: T4, HLA-DP on Ba/F3 cells (human, UniProt P20036 29-222; P04440 30-225, limits assumed); experiment: FACS, Ba/F3 cells; raw MFI
T4 construct: whole, on cells; also called Ba/F3-HLA-DP

HLA-DQ2.5 on Ba/F3 cells = biological target: T5, HLA-DQ2.5 on Ba/F3 cells (human, UniProt P01909 24-216, limits assumed); experiment: FACS, Ba/F3 cells; %MFI with IC17dK 0 and DQN0139bb 100
T5 construct: whole, on cells; MHC class II without a fused peptide; also called Ba/F3-HLA-DQ2.5

HLA-DQ2.2 on Ba/F3 cells = biological target: T6, HLA-DQ2.2 on Ba/F3 cells (human, UniProt P01909 24-216, limits assumed); experiment: as above
T6 construct: whole, on cells; also called Ba/F3-HLA-DQ2.2
T6 MHC II alpha: not shown
T6 MHC II beta: not shown

HLA-DQ7.5 on Ba/F3 cells = biological target: T7, HLA-DQ7.5 on Ba/F3 cells (human, UniProt P01909 24-216; P01920 33-230, limits assumed); experiment: as above
T7 construct: whole, on cells; also called Ba/F3-HLA-DQ7.5

HLA-DQ8 on Ba/F3 cells = biological target: T8, HLA-DQ8 on Ba/F3 cells (human, UniProt P01909 24-216; P01920 33-230, limits assumed); experiment: as above
T8 construct: whole, on cells; also called Ba/F3-HLA-DQ8
T8 MHC II alpha: not shown
T8 MHC II beta: not shown

HLA-DQ7.3 on Ba/F3 cells = biological target: T9, HLA-DQ7.3 on Ba/F3 cells (human, UniProt P01909 24-216; P01920 33-230, limits assumed); experiment: as above
T9 construct: whole, on cells; also called Ba/F3-HLA-DQ7.3
T9 MHC II alpha: not shown
T9 MHC II beta: not shown

T4 sequence (P20036 29-222 limits assumed, chain 1 of 4, other chains not shown): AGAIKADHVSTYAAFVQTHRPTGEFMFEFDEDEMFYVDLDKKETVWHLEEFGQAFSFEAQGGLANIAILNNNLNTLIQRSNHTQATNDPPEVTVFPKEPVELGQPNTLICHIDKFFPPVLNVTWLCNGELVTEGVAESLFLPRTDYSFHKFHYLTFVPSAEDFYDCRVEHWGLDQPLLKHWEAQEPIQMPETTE
T4 sequence (P04440 30-225 limits assumed, chain 2 of 4, other chains not shown): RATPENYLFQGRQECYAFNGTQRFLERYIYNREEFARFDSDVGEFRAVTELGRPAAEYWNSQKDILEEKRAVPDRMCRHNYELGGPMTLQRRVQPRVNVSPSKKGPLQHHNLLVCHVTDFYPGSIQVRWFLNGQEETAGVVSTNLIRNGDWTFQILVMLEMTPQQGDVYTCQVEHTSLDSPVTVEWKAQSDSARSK

B1: DQN0344H1013/L0620//DQN0385H1353/L0681-F6 (bispecific antibody)
heavy 1: QVQLVESGGGVVQPGRSLRLSCAASGFTFSSAYWMVWVRQAPGQGLEWMGAVYGGSDTTYYAKWTEGRFTISRDTSKNTLYLQMNSLRAEDTAVYYCAREPLNYYYYGELNVWGQGTLVTVSSASTKGPSVFPLAPSSKSTSGGTAALGCLVKDYFPEPVTVSWNSGALTSGVHTFPAVLKSSGLYSLSSVVTVPSSSLGTQTYICNVNHKPSNTKVDKRVEPKSCDKTHTCPPCPAPELRRGPSVFLFPPKPKDTLMISRTPEVTCVVVDVSHEDPEVKFNWYVDGVEVHNAKTKPREEQYNSTYRVVSVLTVLHQDWLNGKEYKCKVSNKALPAPIEKTISKAKGQPREPQVYTLPPSREEMTKNQVSLTCLVKGFYPSDIAVEWESNGQPENNYKTTPPYLDSDGSFFLYSKLTVDKSRWQEGNVFSCSVLHEALHAHYTREELSLSP
light 1: DIQMTQSPSSLSASVGDRVTITCQATENIYSGLAWYQQKPGKAPKLLIYYVSTLAYGIPARFSGSGSGTDFTLTISSLEPEDFAVYYCQTYEDVSAVTFGQGTKVEIKRTVAAPSVFIFPPSDEQLKSGTAEVVCLLNNFYPREAKVQWKVDNALQSGNSEESVTEQDSKDSTYSLSSTLTLSKADYEKHKVYACEVTHQGLSSPVTKSFNRGEC
heavy 2: QVQLVESGGGVVQPGRSLRLSCAASGFTFAEWYFMSWVRQAPGKGLEWVASIDTGSGSIDYAEWVEGRFTISRDNSKNTLYLQMNSLRAEDTAVYYCARDIGIDYNFWGPGTLVTVSSASTKGPSVFPLAPSSKSTSGGTAALGCLVEDYFPEPVTVSWNSGALTSGVHTFPAVLESSGLYSLSSVVTVPSSSLGTKTYICNVNHKPSNTKVDKRVEPKSCDKTHTCPPCPAPELRRGPSVFLFPPKPKDTLMISRTPEVTCVVVDVSHEDPEVKFNWYVDGVEVHNAKTKPREEQYNSTYRVVSVLTVLHQDWLNGKEYKCKVSNKALPAPIEKTISKAKGQPREPQVYTLPPSRKEMTKNQVSLTCLVKGFYPSDIAVEWESNGQPENNYKTTPPYLDSDGSFFLYSKLTVDKSRWQQGNVFSCSVLHEALHAHYTRKELSLSP
light 2: DIQMTQSPSSLSASVGDRVTITCQTTQSISSYLNWYQQKPGQPPKLLIYYASTKAEGIPARFSGSGLGTDFTLTISSLEPEDFAVYYCHYGISKVSFGQGTKVEIKRTVAAPSVFIFPPSDEQLKSGTAKVVCLLNNFYPREAKVQWKVDNALQSGNSKESVTEQDSKDSTYSLSSTLTLSKADYEKHKVYACEVTHQGLSSPVTKSFNRGEC
IC50, α1a gliadin TCR, 250 nM 33mer gliadin [1]: 0.29 ng/mL | IC50, α1b gliadin TCR, 250 nM 33mer gliadin [1]: 1.13 ng/mL | IC50, α2 gliadin TCR, 250 nM 33mer gliadin [1]: 0.34 ng/mL | IC50, ω1 gliadin TCR, 25 µM ω1/2 gliadin [2]: 1.17 ng/mL | IC50, ω2 gliadin TCR, 250 nM ω1/2 gliadin [2]: 0.17 ng/mL | IC50, BC hordein TCR, 250 nM BC hordein [3]: 8.78 ng/mL | IC50, γ1 gliadin TCR, 250 nM γ1 gliadin [4]: 0.56 ng/mL | IC50, γ2 gliadin TCR, 250 nM γ2 gliadin [5]: 100 ng/mL | IC50, γ3 gliadin TCR, 100 µM γ3 gliadin [6]: 2.29 ng/mL | IC50, γ4a gliadin TCR, 25 µM γ4a gliadin [7]: 1250 ng/mL | IC50, γ4d gliadin TCR, 100 µM γ4d gliadin [8]: 2.06 ng/mL | binding result (HLA-DQ5.1 on Ba/F3 cells): no binding (tested: 0.05 ug/mL) | binding result (HLA-DQ6.3 on Ba/F3 cells): no binding (tested: 0.05 ug/mL) | binding result (HLA-DR on Ba/F3 cells): no binding (tested: 0.05 ug/mL) | binding result (HLA-DP on Ba/F3 cells): no binding (tested: 0.05 ug/mL) | binding result (HLA-DQ2.5 on Ba/F3 cells): no binding (tested: 0.05 ug/mL) | binding result (HLA-DQ2.2 on Ba/F3 cells): no binding (tested: 0.05 ug/mL) | binding result (HLA-DQ7.5 on Ba/F3 cells): no binding (tested: 0.05 ug/mL) | binding result (HLA-DQ8 on Ba/F3 cells): no binding (tested: 0.05 ug/mL) | binding result (HLA-DQ7.3 on Ba/F3 cells): no binding (tested: 0.05 ug/mL)
